± gives the uncertainty stated by the source.
B1: Ankyrin repeat and SAM domain-containing protein 6, residues 774 to 836; numbered along this chain, Q68DC2 (parent)
chain: DEDELTGILKKLSLEKYQPIFEEQEVDMEAFLTLTDGDLKELGIKTDGSRQQILAAISELNAG
B2: Nuclear receptor subfamily 4 group A member 2, residues 260 to 336; numbered along this chain, P43354 (parent)
chain: EGLCAVCGDNAACQHYGVRTCEGCKGFFKRTVQKNAKYVCLANKNCPVDKRRRNRCQYCRFQKCLAVGMVKEVVRTD

Variants of: B1
Assay: abundance fitness (aPCA) (normalised: wild type 0, dead -1); higher = more abundant; growth selection in yeast, the domain comes from the species named
Conditions: Homo sapiens

Variant	abundance fitness
S58A	0.045 ± 0.066
S58M	-0.205 ± 0.093
S58Y	-0.466 ± 0.1
S58H	-0.114 ± 0.17
S58R	0.022 ± 0.04
S58F	-0.434 ± 0.068
S58I	-0.533 ± 0.088
S58N	0.118 ± 0.09
S58T	-0.064 ± 0.049
S58Q	-0.198 ± 0.092
S58K	0.157 ± 0.066
S58G	0.034 ± 0.04
Q52F	-0.667 ± 0.098
Q52N	-0.193 ± 0.072
Q52C	-0.12 ± 0.058
Q52T	-0.2 ± 0.059
Q52K	-0.095 ± 0.068
Q52L	-0.132 ± 0.04
Q52S	-0.105 ± 0.041
Q52H	-0.155 ± 0.094
Q52W	-0.805 ± 0.074
Q52M	-0.302 ± 0.06
Q52E	0.079 ± 0.062
Q52G	-0.279 ± 0.043
Q52Y	-0.574 ± 0.084

Variant	abundance fitness
Q52I	-0.211 ± 0.069
Q52A	-0.04 ± 0.048
Q52D	0.112 ± 0.073
Q52P	-0.715 ± 0.058
R50F	-1 ± 0.11
R50K	-0.582 ± 0.087
R50C	-0.363 ± 0.072
R50W	-0.706 ± 0.069
R50Q	-0.621 ± 0.085
R50L	-0.623 ± 0.051
R50N	-0.653 ± 0.099
R50T	-0.71 ± 0.076
R50S	-0.524 ± 0.048
R50H	-0.527 ± 0.11
R50E	-0.526 ± 0.058
R50I	-0.292 ± 0.09
R50V	-0.492 ± 0.047
R50P	-0.649 ± 0.091
R50Y	-0.834 ± 0.084
R50M	-0.722 ± 0.088
R50G	-0.677 ± 0.039
R50A	-0.494 ± 0.055
A56W	-0.708 ± 0.064
A56G	0.009 ± 0.041
A56F	-0.246 ± 0.074

Variant	abundance fitness
A56D	-0.183 ± 0.079
A56Y	-0.109 ± 0.053
A56M	-0.227 ± 0.08
A56L	-0.17 ± 0.037
A56V	-0.133 ± 0.043
A56S	-0.157 ± 0.042
A56N	-0.385 ± 0.075
A56E	0.004 ± 0.079
A56C	0.007 ± 0.051
A56H	-0.147 ± 0.075
A56I	-0.486 ± 0.14
A56T	-0.113 ± 0.059
A56P	-0.377 ± 0.055
A56K	-0.202 ± 0.051
I57T	-0.221 ± 0.06
I57V	-0.206 ± 0.054
I57M	-0.539 ± 0.051
I57A	-0.248 ± 0.052
I57Y	-0.696 ± 0.087
I57K	-0.349 ± 0.081
I57E	-0.414 ± 0.046
I57W	-0.675 ± 0.086
I57S	-0.282 ± 0.051
I57G	-0.37 ± 0.038
I57L	-0.257 ± 0.041

Variant	abundance fitness
I57N	-0.437 ± 0.073
I57C	-0.277 ± 0.051
I57F	-0.675 ± 0.088
I57H	-0.254 ± 0.14
I57Q	-0.116 ± 0.062
L60A	-0.147 ± 0.041
L60V	-0.03 ± 0.042
L60K	-0.508 ± 0.2
L60W	0.031 ± 0.055
L60F	-0.04 ± 0.062
L60R	-0.108 ± 0.039
L60G	-0.301 ± 0.036
L60S	-0.466 ± 0.045
L60M	-0.054 ± 0.057
L60D	-0.359 ± 0.067
L60P	-0.636 ± 0.082
L60I	-0.073 ± 0.073
L60C	0.033 ± 0.046
L60Y	0.048 ± 0.069
L60N	-0.286 ± 0.15
E59I	-0.505 ± 0.1
E59Y	0.02 ± 0.11
E59S	-0.113 ± 0.046
E59A	0 ± 0.055
E59N	-0.212 ± 0.17

Variant	abundance fitness
E59M	-0.169 ± 0.065
E59H	0.047 ± 0.071
E59P	-0.614 ± 0.073
E59D	-0.078 ± 0.079
E59W	-0.35 ± 0.044
E59T	-0.106 ± 0.069
E59C	-0.272 ± 0.059
E59K	0.02 ± 0.071
E59Q	-0.097 ± 0.061
E59V	-0.267 ± 0.051
A62V	-0.117 ± 0.064
A62W	-0.475 ± 0.086
A62E	0.035 ± 0.051
A62L	-0.178 ± 0.029
A62D	0.031 ± 0.071
A62P	-0.294 ± 0.075
A62M	-0.2 ± 0.053
A62C	-0.017 ± 0.14
A62Q	-0.121 ± 0.073
A62G	0.011 ± 0.041
A62T	-0.161 ± 0.057
A62S	-0.09 ± 0.051
A62K	-0.25 ± 0.11
A62H	-0.074 ± 0.1
A62I	-0.325 ± 0.064

Variant	abundance fitness
A62N	-0.07 ± 0.13
A62R	-0.048 ± 0.043
A62F	-0.345 ± 0.1
S49N	0.003 ± 0.062
S49V	0.062 ± 0.041
S49F	-0.249 ± 0.07
S49Q	-0.03 ± 0.056
S49C	0.096 ± 0.059
S49K	-0.186 ± 0.081
S49E	0.181 ± 0.044
S49M	-0.068 ± 0.067
S49P	-0.208 ± 0.073
S49D	0.157 ± 0.033
S49R	-0.192 ± 0.053
S49W	-0.391 ± 0.073
S49Y	-0.242 ± 0.073
S49L	-0.191 ± 0.051
S49H	0.009 ± 0.075
S49G	-0.055 ± 0.033
S49T	-0.054 ± 0.057
Q51M	-0.215 ± 0.053
Q51W	-0.724 ± 0.059
Q51P	-0.54 ± 0.059
Q51T	-0.163 ± 0.045
Q51G	-0.216 ± 0.044

Variant	abundance fitness
Q51N	-0.044 ± 0.08
Q51Y	-0.483 ± 0.12
Q51E	-0.128 ± 0.062
Q51R	-0.092 ± 0.041
Q51D	-0.076 ± 0.076
Q51V	-0.233 ± 0.05
Q51C	-0.379 ± 0.068
Q51L	-0.252 ± 0.043
Q51A	-0.084 ± 0.046
Q51S	-0.082 ± 0.037
L54G	-0.433 ± 0.059
L54S	-0.234 ± 0.048
L54T	-0.312 ± 0.057
L54P	-0.311 ± 0.053
L54V	-0.252 ± 0.054
L54W	-0.813 ± 0.059
L54Q	-0.273 ± 0.065
L54K	-0.245 ± 0.048
L54E	-0.24 ± 0.065
L54Y	-0.634 ± 0.085
L54F	-0.757 ± 0.093
L54H	-0.439 ± 0.09
L54I	-0.133 ± 0.063
L54D	-0.59 ± 0.11
L54A	-0.359 ± 0.056

Variant	abundance fitness
L54C	-0.075 ± 0.06
L54M	-0.137 ± 0.077
L54R	-0.337 ± 0.041
N61C	-0.314 ± 0.064
N61A	-0.148 ± 0.051
N61T	-0.001 ± 0.043
N61P	-0.461 ± 0.057
N61D	-0.297 ± 0.067
N61S	-0.173 ± 0.042
N61Y	-0.345 ± 0.062
N61W	-0.531 ± 0.055
N61I	-0.449 ± 0.074
N61R	0.007 ± 0.043
N61Q	-0.127 ± 0.05
N61M	-0.333 ± 0.057
N61L	-0.299 ± 0.042
N61K	0.071 ± 0.064
N61G	-0.186 ± 0.036
N61H	-0.007 ± 0.084
A55I	-0.203 ± 0.095
A55Q	-0.022 ± 0.068
A55W	-0.386 ± 0.055
A55M	-0.21 ± 0.094
A55T	0.063 ± 0.077
A55F	-0.256 ± 0.065

Variant	abundance fitness
A55E	0.031 ± 0.075
A55S	0.043 ± 0.042
A55P	-0.528 ± 0.067
A55L	-0.159 ± 0.05
A55R	0.108 ± 0.037
A55V	-0.301 ± 0.049
A55K	0.112 ± 0.096
A55Y	-0.128 ± 0.049
A55G	0.105 ± 0.041
A55C	0.046 ± 0.051
A55N	0.014 ± 0.082
G63F	-0.532 ± 0.12
G63R	0.073 ± 0.05
G63I	-0.161 ± 0.098
G63W	-0.464 ± 0.085
G63A	-0.007 ± 0.062
G63E	-0.2 ± 0.15
G63K	-0.166 ± 0.14
G63C	-0.111 ± 0.067
G63T	-0.105 ± 0.068
G63D	-0.278 ± 0.11
G63S	-0.069 ± 0.054
G63H	-0.216 ± 0.13
G63V	-0.135 ± 0.045
G63N	-0.266 ± 0.12

Variant	abundance fitness
G63P	-0.052 ± 0.097
I53Q	-0.686 ± 0.063
I53F	-0.432 ± 0.1
I53N	-0.451 ± 0.068
I53P	-0.44 ± 0.055
I53M	-0.062 ± 0.049
I53T	-0.345 ± 0.058
I53L	-0.002 ± 0.039
I53V	-0.104 ± 0.048
I53W	-0.904 ± 0.069
I53E	-0.319 ± 0.063
I53H	-0.481 ± 0.07
I53S	-0.44 ± 0.046
I53R	-0.559 ± 0.052
I53C	-0.404 ± 0.071
I53D	-0.33 ± 0.12
I53A	-0.331 ± 0.045
G48T	0.149 ± 0.058
G48Y	-0.321 ± 0.12
G48W	-0.424 ± 0.043
G48Q	-0.039 ± 0.053
G48S	0.007 ± 0.048

Variants of: B2
Assay: as above
Conditions: Homo sapiens

Variant	abundance fitness
F61M	0.072 ± 0.13
F61R	-0.989 ± 0.19
K71A	0.008 ± 0.081
K71I	-0.19 ± 0.18
R75S	0.063 ± 0.12
R75V	0 ± 0.036
R75W	-0.103 ± 0.051
R75D	-0.136 ± 0.12
R75Y	-0.112 ± 0.19
R19Q	-0.053 ± 0.074
R52L	-0.043 ± 0.057
R52A	0.025 ± 0.083
V70I	0.102 ± 0.14
V70R	-0.013 ± 0.064
R30W	-0.16 ± 0.096
R30E	-0.105 ± 0.14
R30V	-0.216 ± 0.086
K29I	0.214 ± 0.21
K29R	-0.123 ± 0.08
N54I	0.164 ± 0.43
N54D	0.135 ± 0.2
N54R	-0.15 ± 0.11

Variant	abundance fitness
N54F	-0.143 ± 0.12
G68E	-0.63 ± 0.2
D49A	-0.135 ± 0.084
D49F	-0.204 ± 0.092
V39E	-0.058 ± 0.16
V39L	-0.153 ± 0.2
R60V	0.01 ± 0.044
L65I	-0.274 ± 0.39
L65N	0.153 ± 0.32
L65W	-0.299 ± 0.059
L65T	-0.659 ± 0.32
M69F	-0.042 ± 0.069
M69L	-0.07 ± 0.055
C56L	-1.09 ± 0.23
C56G	-1.05 ± 0.073
C56E	-0.894 ± 0.33
H15G	-0.082 ± 0.07
N43W	-0.011 ± 0.16
E22V	-0.213 ± 0.08
E22I	-0.393 ± 0.2
K44V	-0.371 ± 0.21
K44M	0.037 ± 0.14

Variant	abundance fitness
E72T	0.092 ± 0.34
E72M	-0.099 ± 0.17
G17C	0.255 ± 0.26
G17M	-0.076 ± 0.12
V32R	0.256 ± 0.2
V32C	-0.071 ± 0.36
V32H	-0.224 ± 0.27
D77G	-0.042 ± 0.044
D77L	-0.101 ± 0.077
A66V	-0.17 ± 0.051
A66R	-0.114 ± 0.079
A66C	-0.21 ± 0.066
A36D	-0.019 ± 0.1
A36Q	-0.085 ± 0.24
R51E	0.082 ± 0.12
R51F	0.064 ± 0.096
C40R	-0.799 ± 0.4
K25D	-0.017 ± 0.18
G26C	-0.138 ± 0.11
G26E	-0.214 ± 0.15
C64A	-0.163 ± 0.11
C13E	0.03 ± 0.085

Variant	abundance fitness
C13D	-0.022 ± 0.22
C13A	0.1 ± 0.088
K63R	-0.206 ± 0.072
V74G	-0.013 ± 0.039
C59A	-0.549 ± 0.12
K37T	0.067 ± 0.15
N35D	0.118 ± 0.12
N35C	0.141 ± 0.22
T76R	0.015 ± 0.068
T76I	-0.007 ± 0.19
L41M	0.039 ± 0.11
L41E	0.064 ± 0.17
L41R	-0.064 ± 0.095
A42W	-0.305 ± 0.23
P47M	-0.239 ± 0.48
P47V	-0.056 ± 0.049
Q14A	0.207 ± 0.089
F28A	-0.1 ± 0.063
Q62G	-0.297 ± 0.041
G23W	-0.029 ± 0.17
G23Q	-0.208 ± 0.43

— the Human Domainome abundance scans (Beltran et al. 2025)
